Measured values: US20050032146A1 (published 2005)

T1: tsks fused to the GAL 4 activation domain (AD)
T1 chain: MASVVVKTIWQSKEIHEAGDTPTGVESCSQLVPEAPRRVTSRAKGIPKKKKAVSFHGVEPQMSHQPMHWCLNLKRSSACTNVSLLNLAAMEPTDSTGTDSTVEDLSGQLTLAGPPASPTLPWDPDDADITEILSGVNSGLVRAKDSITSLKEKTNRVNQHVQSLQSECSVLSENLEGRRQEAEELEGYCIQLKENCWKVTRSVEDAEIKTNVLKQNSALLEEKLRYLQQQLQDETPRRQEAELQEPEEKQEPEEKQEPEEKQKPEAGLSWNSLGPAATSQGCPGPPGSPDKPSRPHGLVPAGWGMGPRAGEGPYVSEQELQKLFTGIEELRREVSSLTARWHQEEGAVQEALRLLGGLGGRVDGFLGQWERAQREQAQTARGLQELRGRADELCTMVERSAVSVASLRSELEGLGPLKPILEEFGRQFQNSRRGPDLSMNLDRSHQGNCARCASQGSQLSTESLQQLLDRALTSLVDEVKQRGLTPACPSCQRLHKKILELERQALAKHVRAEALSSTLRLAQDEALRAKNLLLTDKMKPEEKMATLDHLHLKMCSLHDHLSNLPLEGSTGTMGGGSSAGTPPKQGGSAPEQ


Legend:
[1] = target: T1, tsks fused to the GAL 4 activation …
[2] = target: T2, tssk 2 fused to the GAL4 DNA binding domain (DNA-BD) (human, UniProt P04386 1-147 (Saccharomyces cerevisiae entry), limits assumed); test: yeast two-hybrid, growth in His-free medium (AH109)
T2 construct: Yeast two-hybrid bait expressed in the AH109 reporter strain; also called bait gene (tssk 2); fusion protein of tssk 2 with the DNA-BD
Protocol: In this experiment, a bait gene (tssk 2) was first transformed into the reporter strain as a fusion to the GAL4 DNA binding domain (DNA-BD). A second plasmid that expressed tsks as fusion to the GAL 4 activation domain (AD) was also introduced into the AH109 reporter strain. Western blots were performed to confirm expression of fusion proteins in yeast. […] This interaction was used as a positive control. […] Neither GAL-AD alone nor the fusion proteins between GAL-AD and TSKS or GAL-AD and SV40 Large T antigen had the ability to activate transcription of the His gene.

Row | Binder | transcription of the Histidine (HIS) gene; growth of yeast in His-free medium [1] | binding result [2]
1 | tssk 2 fused to the GAL4 DNA binding domain (DNA-BD) (protein) MKLLSSIEQACDICRLKKLKCSKEKPKCAKCLKNNWECRYSPKTKRSPLTRAHLTEVESRLERLEQLFLLIFPREDLDMILKMDSLQDIKALLTGLFVQDNVNKDAVTDRLASVETDMPLTLRQHRISATSSSEESSNKGQRQLTVSMDDATVLRKKGYIVGINLGKGSYAKVKSAYSERLKFNVAVKIIDRKKTPTDFVERFLPREMDILATVNHGSIIKTYEIFETSDGRIYIIMELGVQGDLLEFIKCQGALHEDVARKMFRQLSSAVKYCHDLDIVHRDLKCENLLLDKDFNIKLSDFGFSKRCLRDSNGRIILSKTFCGSAAYAAPEVLQSIPYQPKVYDIWSLGVILYIMVCGSMPYDDSDIRKMLRIQKEHRVDFPRSKNLTCECKDLIYRMLQPDVSQRLHIDEILSHSWLQPPKPKATSSASFKREGEGKYRAECKLDTKTGLRPDHRPDHKLGAKTQHRLLVVPENENRMEDRLAETSRAKDHHISGAEVGKAST | promote transcription of the Histidine (HIS) gene and allow for the growth of yeast in His-free medium | 
2 | GAL 4 activation domain alone (GAL-AD plasmid) (other, UniProt P04386 768-881, looked up, Negative-control prey without an insert; also called GAL-AD alone) ANFNQSGNIADSSLSFTFTNSSNGPNLITTQTNSQALSQPIASSNVHDNFMNNEITASKIDDGNNSKPLSPGWTDQTAYNAFGITTGMFNTTTMDDVYNYLFDDEDTPPNPKKE |  | no binding
